Assay results from article PMC10402242.

Target: nuclear transport factor 2 (NUTF2) (human (endogenous in MCF-7)) (UniProt P61970)
Assay: native MS; native top-down proteomics: whole cell lysates of MCF-7 and MCF-7-EGFR (EGFR-overexpressing) cells fractionated by native SEC, concentrated with molecular weight cutoff filters, direct ESI infusion FAIMS-MSn with HCD, Orbitrap detection; endogenous assemblies

nuclear transport factor 2 (NUTF2), sequence (P61970 whole entry): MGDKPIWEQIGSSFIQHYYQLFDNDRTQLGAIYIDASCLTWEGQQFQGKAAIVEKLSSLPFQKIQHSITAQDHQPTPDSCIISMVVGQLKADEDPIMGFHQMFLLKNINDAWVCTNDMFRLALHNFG

nuclear transport factor 2 (NUTF2) (from UniProt P61970 1-127) (natural protein; monomeric proteoforms include acetylated, methylated and dimethylated forms (sites K4, K55, K63); monomeric proteoforms include acetylated, methylated and dimethylated forms (sites K4, K55, K63); other documents disagree on this pair)
stoichiometry N: 2
